Measured values published in US10125184B2, “Apolipoprotein E polypeptides and their use” (priority 2011, dated 2018).
Read-outs that look alike come from different tables or passages of the source.

B1: hEP: human apoE dual-domain peptide: helix 4 of N-terminal domain plus major lipid-binding region; expressed in bacteria (protein)
peptide: EELRVRLASHLRKLRKRLLRDADDLQKRLAVYEEQAQQIRLQAEAFQARLKSWFEPLVEDM

Key:
[1] = DMPC binding assay (turbidity OD490nm)
Method: FIGS. 3A-3C. Both hEP and mEP mediate plasma cholesterol clearance through hepatic lipoprotein receptors. (A) DMPC binding assay was conducted as described in the examples section. The turbidity of DMPC vesicle solution was monitored by OD490 nm. The curves were representative of two independent experiments. (B) HEK293T cells were loaded with DiI-LDL (5 μg/ml) along with apoE peptide-DMPC particles which competed with DiI-LDL for LDLR binding and LDLR-mediated endocytosis (for 30 min) n=3 for each group. (C) Each peptide (100 μg in 100 μl PBS) was retro-orbitally injected into 6-month-old apoE−/− mice (two mice each group). PBS (100 μl) was injected into two other mice as control. Before (set as 0 min time point) and 5 min, 30 min, 1 h, 2 h, and 4 h after the peptide or PBS injection, 30 μl blood samples were drawn for plasma cholesterol measurement using total Cholesterol Reagent Kit (Raichem, San Diego, Calif.).
1,2-dimyristoyl-sn-glycero-3-phosphatidylcholine (DMPC) (Avanti Polar Lipids Inc., Alabaster, Ala.) was dissolved in chloroform: methanol (3:1, v/v). It was dried thoroughly under a stream of N2. The dried lipid sample was dispersed in pre-warmed buffer (10 mM Tris-HCl, pH7.2; 150 mM NaCl; 0.5 mM EDTA) to final lipid concentration of 10 mg/ml, vortexed for 1 min, and sonicated 10 times at lowest power for 10 seconds at 24° C. The peptide solution, lipid solution and buffer were all maintained at 23.9° C. One milliliter buffer and 250 μg (25 μl lipid solution) were added in a quartz cuvette, and let equilibrate for 10 min, resulting in a turbid DMPC vesicle solution. Peptide solution (250 μg in 100 μl) was then added to turbid solution in the cuvette, the solution was mixed immediately, and the change of turbidity was monitored by OD at 490 nm as a function of time. If the peptide binds to DMPC vesicles, the large DMPC vesicles will be transformed into smaller DMPC-peptide particles, reducing the turbidity of the solution.

JFH-1 HCVcc-Luc = system: JFH-1 HCVcc-Luc
Method: FIGS. 1A-1C. […] (A) Schematic illustration of apoE protein domains and the amino acid sequences of hEP and mEP peptides. The amino acid sequences shown are hEP-1 (SEQ ID NO: 6) and mEP (SEQ ID NO: 20). […] Huh7.5.1 cells were infected with JFH-1 HCVcc-Luc (MOI˜0.5) in the presence of hEP or mEP for 2 hours. After removal of virus and peptides, cells were further incubated for 48 hours prior to luciferase assay. Data are presented as % inhibition relative to control infections in which cells were treated with DMSO (0%). Results are expressed as mean±standard deviation (s.d.) (n=3). (C). Huh7.5.1 cells were treated with hEP or DMSO at indicated doses for 48 hours. The effect of hEP on cell viability was measured by a CellTiter Glo assay kit.
FIGS. 7A-7E. Mapping the anti-viral activity of hEP. In (A) and (B), HCVcc-luc was first mixed with indicated peptides (20 μg/ml, 2.7 μM) and then incubated with Huh7.5.1 cells for two hours at 37° C. to initiate infection. After additional 48 hours incubation, luciferase activity was measured. Results are presented as fold of inhibition relative to infections containing DMSO (n=5, mean±sd). (C) 20 μg of hEP-2 or hEP-2/ΔCys were resuspended in PBS and kept at room temperature for 30 minutes. Peptides were then mixed with 2×SDS-sample buffer without DTT and boiled for 5 minutes. Alternatively, samples were simply left unboiled or mixed with sample buffer containing DTT (2 mM). Peptide samples were then subjected to electrophoresis on a 16% tricine non-reducing gel (Invitrogen). […] (D) and (E) Mass spectrometric analysis of hEP-2 or hEP-2/ΔCys.
Detailed procedures involving the production and use of HCVpp and HCVcc have been published elsewhere (Liu et al., J Virol 2009; 83:2011-2014; Yang et al., Hepatology 2008; 48:1396-1403; Yang et al., J Biol Chem 2008; 283:8643-8653). Production procedure of HCVcc expressing firefly luciferase that was inserted between NS5A and NS5B (JFH-1 strain) was described elsewhere (Liu et al., Virology 2010; 407:160-170). Unless otherwise indicated, viruses were typically added to cells for two hours before removal. Cells were incubated for additional 48 hours followed by luciferase assay. When purification was needed, HCVcc were subjected to ultracentrifugation (SW41, 28,000×g) for 4 hours through a 20% sucrose cushion. Deidentified human sera, collected from five patients containing high-titer HCV (HCVser), were obtained.

LDLR = experiment: Surface LDLR level on Huh7.5.1 cells by flow cytometry; type: cell-based; conditions: various time periods
Method: FIGS. 4A-4C. (A) Huh7.5.1 cells seeded in a 12-well plate were treated with hEP-2 (20 μg/ml) for indicated time periods. Cells were stained with a mouse IgG (istotype control) or the anti-LDLR antibody followed by flow cytometric analysis. An overlay of 7 histograms is presented and the Δ median fluorescence intensity (ΔMFI, LDLR stain minus isotype control stain) of each sample is indicated to the upper right of the figure. (B) Cells were stained with anti-CD81 antibody and analyzed similarly as in A. (C) Immunonblots of SR-BI, CLDN1, and OCLN in the presence of hEP-2 or scrambled peptide.

DENY (Thailand 16681) = experiment: Dengue virus infection of Huh7.5.1 cells (TCID50); type: cell-based

| Molecule | DMPC binding ([1]; reduction (percentage) of turbidity (OD490nm) of DMPC solution, plateau 10 minutes after addition of peptide) | IC50 (JFH-1 HCVcc-Luc; HCVcc infection of Huh7.5.1 cells) [nM] | Change of surface LDLR (LDLR) | Binding to DMPC (in words) ([1]; DMPC vesicles, turbidity) | Effect on infectivity of DENY (DENY (Thailand 16681)) | IC50 (JFH-1 HCVcc-Luc; read-out: 50% inhibitory concentration (IC50) of HCVcc infection, JFH-1 HCVcc-Luc MOI~0.5, peptide present 2 hours, luciferase after 48 hours) [nM] | Suppression of HCVcc infection at various MOIs (JFH-1 HCVcc-Luc; various MOIs) |
| --- | --- | --- | --- | --- | --- | --- | --- |
| EELRVRLASHLRKLRKRLLRDADDLQKRLAVYEEQAQQIRLQAEAFQARLKSWFEPLVEDM [hEP-1] | + (+, reduction 25-50%) | 670 | – | – | – | – | – |
| B1 | – | – | did not cause detectable change | efficiently bound | did not affect the infectivity | 670 | robustly suppressed |
